Experimental data published in patent US20230303681A1 (published 2023).
Residue numbers refer to the chain shown, from its start. Values joined by “and” are separate entries in the source; they are usually repeats but may differ in a detail not shown here. Equal values may be shown once.

B1: anti-TMEM106B antibody TM-44 (antibody, V domains shown)
VH: EVQLVESGGGLVKPGGSLKLSCAASGFTFSDYGMHWVRQAPEKGLEWVAYISSGSSTIYYADTVKGRFTISRDNAKNTLFLQMTSLRSEDTAMYYCARNYGSPYAMDYWGQGTSVTVSS
VL: not shown
notes: mouse IgG from hybridoma
B2: anti-TMEM106B antibody TM-17 (antibody, V domains shown)
VH: QVQLQQSGAELIRPGTSVKVSCKASGYAFTDYLIEWVKQRPGQGLEWIGVINPGSGGTNYNEKFKGKAKLTADKSSSTAYMQLSSLTSEDSAVYFCVRSSYGVYVAYPMDYWGQGTSVTVSS
VL: DIQMTQSPSSLSASLGERVSLTCRASQDIGSNLNWLQQEPDGTIKRLIYATSSLDSGVPKRFSGSRSGSDYSLTISSLESEDFVDYYCLQYASSPRTFGGGTKLEIK
B3: anti-TMEM106B antibody TM-11 (antibody, V domains shown)
VH: QVQLKQSGPGQVQPSQSLSITCTVSGFSLSDYGVHWVRQSPGKGLEWLGVIWNNGNTDYNAAFISRLSINKDNSKSQVFFKMTSLQADDTAIYYCVRSLRPLHFDYWGQGTTVTVSS
VL: DIVMTQSPSSLTMSVGQKVTMHCKSSQSLLNSNNLQNYLAWYQQKPGQSPTLLVYFASIRESGVPDRFIGSGSGTDFTLTISSVQAEDLADYFCQQHYNTPFTFGSGTKLEIR
B4: anti-TMEM106B antibody TM-12 (antibody, V domains shown)
VH: EVQLQQSGAELMRPGASVKLSCTASGFNIQDYYMYWVKQRPEQGLEWIGRIDPEDGDAEYAPKFQGKATMTADTSSNTAYLQLSSLTSEDTAVYYCSTRVIYDGYYRTMDCWGQGTSVTVSS
VL: DVLMTQIPLSLPVSLGDQASISCRSSQTIVHSNGNTYLEWYLKKPGQSPKLLIDKISNRFSGVPDRFSGSGSGTDFTLKISRVEAEDLGVYYCFQGSHVPYTFGGGTKLEIK
B5: anti-TMEM106B antibody TM-21 (antibody, V domains shown)
VH: EVQLVESGGGLVKPGGSLKLSCAASGFTFSNYAMSWVRETPEKRLEWVAFISDGGGYIYYADNVKDRFTISRDNAKNNLYLQMRHLKSEDTAMYYCARDGGTGFTYWGQGTLVTVSV
VL: DIVMTQAAFSNPVTLGTSASISCRSSKSLLHSNGITYLFWYLQKPGQSPQLLIYQMSNLASGVPDRFSSSGSGTDFTLRISRVEAEDVGVYYCVQNLELPYTFGGGTKLEIK
B6: anti-TMEM106B antibody TM-10 (antibody, V domains shown)
VH: QVQLQQSGAELVKPGASVKISCKGSGYAFSSYWMNWVKQRPGKGLEWIGQIYPGDGDTNYNGKFKGKATLTADKSSTTAYIHLSSLTSEDSAVYFCARWGHYDEAMDDWGQGTSVTVSS
VL: DVVMTQTPLSLPVSLGDQASISCRSSQSLVHSNGKTYLHWYVQKPGQSPKLLIYKISNRFSGVPDRFSGSGSGTDFTLKISRVEAEDLGVYFCSQITHVPWTFGGGTKLESK
B7: anti-TMEM106B antibody TM-16 (antibody, V domains shown)
VH: EVQLQQSGAELVRPGASVKLSCTTSGFNIKDYYMHWVKQRTEQGLEWIGRIDPEDGETKYAPEFQGKATITSDTSSNTAFLQLSSLTSEDTAVYYCASSQPFTYWGQGTLVTVSA
VL: QIVLTQSPAIMSASPGEKLTMTCSASSSLNYMYWYQQKPGSSPRLLIYDTSNLASGVPVRFSGSGSGTSYSLTISRMEAEDGATYYCQQWTSFPPTFGAGTKLELK
B8: anti-TMEM106B antibody TM-32 (antibody, V domains shown)
VH: EVQLQQSGAELVRPGASVRLSCIASGFNIKDYYMYWVKQRPEQGLEWIGRIDPEDGDTEYVPKFQGKATMTADTSSNTAYLQLSSLTSEDIGVYYCTTRTWDLYYAVDNWGQGTSVTVSS
VL: B4 VL with I7T, T28N, K43Q, I56V, V90I, Y101F, G105S
B9: anti-TMEM106B antibody TM-20 (antibody, V domains shown)
VH: B7 VH
VL: B7 VL with S62R
B10: anti-TMEM106B antibody TM-24 (antibody, V domains shown)
VH: B3 VH
VL: B3 VL with H22N, L35Q, T51K, S82N, N99S
notes: mouse IgG from hybridoma
B11: anti-TMEM106B antibody TM-30 (antibody, V domains shown)
VH: QVQLQQSGPELVKPGASVKLSCKASDNTFTNYDVNWVRQRPGQGLEWIGWIYPRDGTTIYNEKFKGRATLTVDTSSSTAYMELHSLTSEDSAVFFCARTLPQAMDYWGQGTSVTVSS
VL: B4 VL with I7S, A19V, S32R, K43Q, D54Y, I56V, V99L, Y101W
notes: mouse IgG from hybridoma

biological target: T1, human TMEM106B (human, UniProt Q9NUM4 2-274); assay: FACS A549
T1 construct: Full-length, on transiently transfected HEK293 cells, or natively expressed on HeLa, U251 and A549 cells; also called huTMEM106B; huTMEM
Description: (§1) All cells were cultured in either T75 or T150 flasks. […] The enzyme was quenched by addition of fresh media, and the cells were then distributed into 96-well plates for FACS analysis.
(§2) FACS analysis was performed as follows. Each cell type was aliquoted in 96-well round bottom plates (2x10^5 cells per well), washed once with FACS buffer (PBS + 2% FBS + 1 mM EDTA), and incubated with 50 µL of hybridoma supernatant or purified antibody (10 µg/ml in FACS buffer) on ice for 1 hour. […] Following this secondary incubation, the cells were again washed 2x with ice-cold FACS buffer and resuspended in a final volume of 50 µL of FACS buffer + 0.25 µl/well propidium iodide (Fisher Scientific # BDB556463). Analysis was performed on a FACSCanto system (BD Biosciences) or iQue (Intellicyt), with sort gates drawn to exclude dead (i.e., propidium iodide positive) cells.
(§3) Data is presented as mean fluorescence intensity (MFI).

Binder | MFI
B1 | 392
B2 | 953
B3 | 1340
B4 | 1940
B5 | 1030
B6 | 823
B7 | 605

biological target: T1, human TMEM106B; assay: FACS HeLa;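 note: flow cytometry of cells incubated with hybridoma supernatant or purified antibody at 10 µg/ml for 1 h on ice, propidium iodide–positive dead cells gated out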
Description: as §1, §2, §3

Binder | MFI
B1 | 168
B2 | 437
B3 | 1870
B4 | 2660
B5 | 1200
B6 | 596
B7 | 548

biological target: T1, human TMEM106B; assay: FACS U251;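 note: flow cytometry of cells exposed to antibody (purified at 10 µg/mL, or hybridoma supernatant) for 1 h on ice, with propidium iodide-positive dead cells gated out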

Binder | MFI
B1 | 522
B2 | 305
B3 | 866
B4 | 1330
B5 | 672
B6 | 328
B7 | 292

biological target: T2, mouse TMEM106B (mouse, UniProt Q80X71 2-275); assay: FACS Neuro2a;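 note: flow cytometry of cells stained with antibody or hybridoma supernatant (purified antibody at 10 µg/ml) for 1 h on ice, propidium iodide–positive dead cells gated out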
T2 construct: on transiently transfected HEK293 cells, or natively expressed on mouse Neuro2a cells; also called moTMEM106B; murine TMEM106B

Binder | MFI
B1 | 202
B2 | 385
B3 | 1040
B4 | 3040
B5 | 706
B6 | 604
B7 | 392

biological target: T3, GST (Pierce) (UniProt P08515 1-218 = GST, limits assumed); assay: ELISA, coated GST;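 note: ELISA on plates coated with GST alone at 1-10 µg/ml, antibodies applied at 100-1000x dilution, bound antibody detected by peroxidase substrate colour after acid stop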
T3 construct: control for the GST part of the fusion protein; also called GST protein; Glutathione-S-transferase

Binder | binding result
B2 | no binding
B3 | no binding
B4 | no binding
B8 | no binding
B5 | no binding
B6 | no binding
B7 | no binding
B9 | no binding

biological target: T1, human TMEM106B; assay: FACS A549, 1 ug/ml
Description: Purified anti-TMEM106B antibodies were evaluated for their binding affinity to various TMEM106B-expressing cell lines including HEK293 transiently transfected with human/cyno/mouse TMEM106B, as well as HeLa cells and A549 cells. Antibodies tested for this experiment were mouse IgGs purified from hybridoma supernatant. Affinity binding to cells was determined as follows. Briefly, 1x10^5 cells were aliquoted per well in 96-well round bottom plates and incubated with 50 µL of purified anti-TMEM106B antibody at various concentrations (10x dilutions starting at 10 µg/ml) in FACS buffer (PBS + 2% FBS + 1 mM EDTA). […] Sorting was performed on a iQue (Intellicyt), with sort gates drawn to exclude dead (propidium iodide +) cells. Binding data was analyzed using median fluorescent intensity (MFI) and graphed in Prism. Values presented are MFI.

Binder | MFI
B1 | 404
B2 | 379
B3 | 2870
B10 | 2880
B4 | 3150
B11 | 3030
B8 | 3930
B5 | 2030
B6 | 663
B7 | 409

biological target: T1, human TMEM106B; assay: FACS A549, 10 ug/ml

Binder | MFI
B1 | 466
B2 | 425
B3 | 5580
B10 | 4480
B4 | 4950
B11 | 4040
B8 | 6100
B5 | 4230
B6 | 1090
B7 | 557

biological target: T1, human TMEM106B; assay: FACS, HEK293 transfectants;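 for fold over negative controls: hybridoma supernatants incubated 30 min on ice with human TMEM106B-expressing HEK293 cells, binding read as anti-mouse-APC median fluorescence on live cells, relative to secondary-antibody-only wells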;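 for fold-change over parental HEK293: flow cytometry binding of hybridoma supernatants to HEK293 cells transiently expressing human, cyno or mouse TMEM106B, read as anti-mouse-APC median fluorescence, live cells only, 30 min on ice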

Binder | fold over negative controls [fold]
B2 | > 2
B3 | > 2
B10 | > 2
B4 | > 2
B11 | > 2
B8 | > 2
B5 | > 2
B6 | > 2
B7 | > 2

biological target: T4, GST-fusion human TMEM106B truncated (human); assay: array SPR, Ab immobilised;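 note: antibodies amine-coupled on an MX-96 chip, antigen flowed at 500 nM top concentration in 5-fold serial dilutions, GST alone run as nonspecific-binding control, duplicate measurements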
T4 construct: also called GST-TMEM106B-truncated protein; GST-TMEM106B (truncated)

Binder | Kd | koff | kon
B2 | 22 nM and 28 nM | 0.00063 s⁻¹ and 0.00097 s⁻¹ | 29000 M⁻¹ s⁻¹ and 35000 M⁻¹ s⁻¹
B3 | 2.1 nM | 5.2e-05 s⁻¹ and 5.7e-05 s⁻¹ | 24000 M⁻¹ s⁻¹ and 27000 M⁻¹ s⁻¹
B4 |  |  | 21000 M⁻¹ s⁻¹ and 29000 M⁻¹ s⁻¹
B8 |  | 8.6e-05 s⁻¹ and 3.5e-05 s⁻¹ | 29000 M⁻¹ s⁻¹ and 40000 M⁻¹ s⁻¹
B5 | 2.9 nM and 4.1 nM | 5.2e-05 s⁻¹ and 7.1e-05 s⁻¹ | 18000 M⁻¹ s⁻¹ and 17000 M⁻¹ s⁻¹
B6 | 17 nM and 22 nM | 0.00054 s⁻¹ and 0.0006 s⁻¹ | 32000 M⁻¹ s⁻¹ and 28000 M⁻¹ s⁻¹

biological target: T1, human TMEM106B; assay: FACS HEK+huTMEM, 10 ug/ml;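 note: purified mouse IgG antibodies at 10 µg/ml bound to HEK293 cells transiently expressing human TMEM106B, measured by flow cytometry as median fluorescence intensity of propidium iodide negative live cells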

Binder | MFI
B1 | 512
B2 | 3960
B3 | 57900
B10 | 66300
B4 | 75300
B11 | 61500
B8 | 61100
B5 | 69400
B6 | 36500
B7 | 5980

biological target: T1, human TMEM106B; assay: FACS, HEK293 transfectants; remark: another data set of the same source;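 for fold over negative controls: hybridoma supernatants incubated 30 min on ice with human TMEM106B-expressing HEK293 cells, binding read as anti-mouse-APC median fluorescence on live cells, relative to secondary-antibody-only wells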;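 for fold-change over parental HEK293: flow cytometry binding of hybridoma supernatants to HEK293 cells transiently expressing human, cyno or mouse TMEM106B, read as anti-mouse-APC median fluorescence, live cells only, 30 min on ice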
Description: (§4) For screening of the hybridoma cell culture supernatants, humanTMEM106B-transfected HEK293 cells were aliquoted in 96-well round bottom plates (2x10^5 cells per well) and incubated with 50 µL of hybridoma cell culture supernatant on ice for 30 minutes. […] Median fluorescence intensity (MFI) of anti-mouse-APC MFI on TMEM106B+ HEK293 cells was calculated for each clone, and those displaying a signal of at least 2-fold over background compared to a secondary-antibody only well were taken forward for further analysis and characterization.

Binder | fold-change over parental HEK293 [fold]
B2 | 12.6
B3 | 9.96
B4 | 25.9
B5 | 29.8
B6 | 37.1
B7 | 8.3

biological target: T5, cynomolgus (cyno) TMEM106B (cynomolgus, UniProt Q9NUM4 2-274 (human entry)); assay: FACS, HEK293 transfectants;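 note: flow cytometry binding of hybridoma supernatants to HEK293 cells transiently expressing human, cyno or mouse TMEM106B, read as anti-mouse-APC median fluorescence, live cells only, 30 min on ice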
T5 construct: on transiently transfected HEK293 cells
Description: as §4

Binder | fold-change over parental HEK293 [fold]
B2 | 14.3
B3 | 23.7
B4 | 44.1
B5 | 48.9
B6 | 65.9
B7 | 17.6

biological target: T2, mouse TMEM106B; assay: FACS, HEK293 transfectants;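 note: flow cytometry binding of hybridoma supernatants to HEK293 cells transiently expressing human, cyno or mouse TMEM106B, read as anti-mouse-APC median fluorescence, live cells only, 30 min on ice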
Description: as §4

Binder | fold-change over parental HEK293 [fold]
B2 | 6.42
B3 | 18.3
B4 | 32.7
B5 | 46.5
B6 | 45.9
B7 | 1.42

biological target: T1, human TMEM106B; assay: FACS HEK+huTMEM, 0.1 ug/ml;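 note: flow cytometry binding of purified mouse IgG antibodies to HEK293 cells transiently expressing TMEM106B, read as median fluorescence intensity with propidium iodide positive dead cells gated out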

Binder | MFI
B1 | 309
B2 | 1910
B3 | 16200
B10 | 22000
B4 | 19700
B11 | 18400
B8 | 20300
B5 | 15600
B6 | 21000
B7 | 680

biological target: T1, human TMEM106B; assay: FACS HEK+huTMEM, 1.0 ug/ml

Binder | MFI
B1 | 337
B2 | 2620
B3 | 54600
B10 | 64500
B4 | 77800
B11 | 63500
B8 | 63300
B5 | 69400
B6 | 44400
B7 | 2140

biological target: T1, human TMEM106B; assay: FACS HEK+huTMEM, 0.01 ug/ml

Binder | MFI
B1 | 300
B2 | 1150
B3 | 4280
B10 | 3620
B4 | 3340
B11 | 3070
B8 | 4100
B5 | 2350
B6 | 3360
B7 | 351
